One data set in a line: in vivo. Details: species or system ddY mice. The conditions noted are these: male, ddY, mouse, iv, 37 kBq/100 uL, total radioactivity. How it is done: Biodistribution experiments were performed after an intravenous administration of each tracer solution diluted in saline (37 kBq/100 μL) to 6-week-old male ddY mice (weight, 27–32 g, Japan SLC, Inc., Hamamatsu, Japan). Four mice were sacrificed at each time point for each compound at 10, 60, and 180 min post-injection. The tissues of interest were dissected and weighed. Complete left femurs were isolated as representative bone samples, radioactivity counts were determined using an auto well gamma counter (ARC-7010, ALOKA Co., Ltd.), and counts were corrected for the background radiation and physical decay that occurred during counting.

Data set [1] is described as follows: Hydroxyapatite-binding assay. The note with it: hydroxyapatite beads 1, 2.5, 10, 25 mg/mL in Tris/HCl-buffered saline 50 mM pH 7.4, ligand 19.5 µM, 1 h, room temperature, gamma counter, four samples; Figure 2. The procedure:
Hydroxyapatite-binding assays were performed according to procedures described previously. Briefly, hydroxyapatite beads (Bio-Gel; Bio-Rad, Hercules, CA, USA) were suspended in Tris/HCl-buffered saline (50 mM, pH 7.4) at 1 mg/mL, 2.5 mg/mL, 10 mg/mL, and 25 mg/mL. For the solutions of [^67Ga]Ga-HBED-CC-(D-Glu)14, [^67Ga]Ga-HBED-CC-(DL-Glu)14, and [^67Ga]Ga-HBED-CC-(D-Glu-L-Glu)7, the ligand concentrations were adjusted to 19.5 µM by adding the corresponding HBED-CC conjugated Glu peptides. A solution of each [^67Ga]Ga-HBED-CC-(D-Glu)14, [^67Ga]Ga-HBED-CC-(DL-Glu)14, and [^67Ga]Ga-HBED-CC-(D-Glu-L-Glu)7 (200 µL each) was added to 200 μL of the hydroxyapatite suspension, and the samples were gently shaken for 1 h at room temperature. After centrifugation at 10,000× g for 5 min, the radioactivity of the supernatants was measured using an auto well gamma counter (ARC-7010B, ALOKA Co., Ltd., Tokyo, Japan). […] The ratios of binding were determined as follows:Hydroxyapatite binding (%) = (1 − [sample supernatant radioactivity]/[control supernatant radioactivity]) × 100

The conditions of data set [2]: hydroxyapatite beads; Figure 2; cited from earlier work. How it is done:
To determine the affinity of the compounds for hydroxyapatite, the hydroxyapatite-binding assay was performed. The hydroxyapatite-binding rates of [^67Ga]Ga-HBED-CC-(L-Glu)14, [^67Ga]Ga-HBED-CC-(D-Glu)14, [^67Ga]Ga-HBED-CC-(DL-Glu)14, and [^67Ga]Ga-HBED-CC-(D-Glu-L-Glu)7 are illustrated in Figure 2. The binding profiles of each tracer were similar.

Read-outs that look alike come from different tables or passages of the source.

For `O=C(O)CCc1ccc(O)c(CN(CCN(CC(=O)O)Cc2cc(CCC(=O)N[C@H](CCC(=O)O)C(=O)N[C@H](CCC(=O)O)C(=O)N[C@H](CCC(=O)O)C(=O)N[C@H](CCC(=O)O)C(=O)N[C@H](CCC(=O)O)C(=O)N[C@H](CCC(=O)O)C(=O)N[C@H](CCC(=O)O)C(=O)N[C@H](CCC(=O)O)C(=O)N[C@H](CCC(=O)O)C(=O)N[C@H](CCC(=O)O)C(=O)N[C@H](CCC(=O)O)C(=O)N[C@H](CCC(=O)O)C(=O)N[C@H](CCC(=O)O)C(=O)N[C@H](CCC(=O)O)C(=O)O)ccc2O)CC(=O)O)c1` [[67Ga]Ga-HBED-CC-(D-Glu)14, metal not drawn], in the data set “in vivo”, the tissue uptake dose at 10 min worked out at 0.57 %ID, the tissue uptake dose at 1 h is 0.51 %ID and the tissue uptake dose at 3 h is 0.76 %ID. Also, the “Hydroxyapatite binding profile (in words)” value in data set [1] was “similar”.

As for `O=C(O)CCc1ccc(O)c(CN(CCN(CC(=O)O)Cc2cc(CCC(=O)N[C@H](CCC(=O)O)C(=O)N[C@@H](CCC(=O)O)C(=O)N[C@H](CCC(=O)O)C(=O)N[C@@H](CCC(=O)O)C(=O)N[C@H](CCC(=O)O)C(=O)N[C@@H](CCC(=O)O)C(=O)N[C@H](CCC(=O)O)C(=O)N[C@@H](CCC(=O)O)C(=O)N[C@H](CCC(=O)O)C(=O)N[C@@H](CCC(=O)O)C(=O)N[C@H](CCC(=O)O)C(=O)N[C@@H](CCC(=O)O)C(=O)N[C@H](CCC(=O)O)C(=O)N[C@@H](CCC(=O)O)C(=O)O)ccc2O)CC(=O)O)c1` [[67Ga]Ga-HBED-CC-(D-Glu-L-Glu)7, metal not drawn], in “in vivo”, the tissue uptake dose at 10 min was found to be 0.32 %ID, the tissue uptake dose at 1 h came to 0.84 %ID and the tissue uptake dose at 3 h amounted to 0.48 %ID. Further, the “Hydroxyapatite binding profile (in words)” value in data set [1] was “similar”.

On to “[^67Ga]Ga-N,N′-bis-[2-hydroxy-5-(carboxyethyl)benzyl]ethylenediamine-N,N′-diacetic acid-conjugated (L-Glu)14 [[^67Ga]Ga-HBED-CC-(L-Glu)14]”, for which, in data set [2], the “Hydroxyapatite binding profile (in words)” value is reported as “similar”.

The values above are taken from article PMC11396517, “Differences in the Renal Accumulation of Radiogallium-Labeled (Glu)14 Peptides Containing Different Optical Isomers of Glutamic Acid” (Molecules, 2024).
